According to paper PMC3871595, “Structure Based Identification and Characterization of Flavonoids That Disrupt Human Papillomavirus-16 E6 Function” (PLoS ONE, 2013):

Target: T1, GST-HPV-16 E6 (human papillomavirus type 16, UniProt P03126 1-158)
T1 construct: early protein 6 (E6) of human papillomavirus type 16; also called GST-E6; GST-16 E6; source: E. coli BL21, purified on glutathione Sepharose beads and kept on the beads
Test: filter plate bead binding assay (BAP chemiluminescence); dissociation rate experiment: GST-E6 and E6AP-BAP bound to equilibrium, unbound E6AP-BAP washed away, decrease in BAP signal at each time point
Settings: both partners purified

T1 sequence (P03126 whole entry): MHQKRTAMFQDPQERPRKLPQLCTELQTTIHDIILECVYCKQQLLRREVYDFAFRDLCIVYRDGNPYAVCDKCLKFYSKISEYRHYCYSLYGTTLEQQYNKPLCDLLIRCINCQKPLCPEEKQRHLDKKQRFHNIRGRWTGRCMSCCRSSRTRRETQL

B1: E6AP-BAP fusion protein (E6AP residues 371-440 fused to bacterial alkaline phosphatase) (domain or fragment, UniProt Q05086 371-440, looked up)
chain: ASKCLKMVYYANVVGGEVDTNHNEEDDEEPIPESSELTLQELLGEERRNKKGPRVDPLETELGVKTLDCR
notes: also called FLAG-tagged E6AP-BAP; source: E. coli BL21, purified (anti-FLAG resin, glycine pH 2.5 elution)
- half-life of ligand dissociation (t1/2): 3.6 min
